Changes are numbered by the printed parent chain. In names and notes the source's numbering stands. Values belong to the binder of their own block, whether it stands above or below them.
Key:
[1] = molecular target: soluble human FcγRIIa^R131-GST (human) (UniProt P12318); assay: SPR; ratio of the Kd for FcγRIIb-GST over that for FcγRIIa-GST
[2] = molecular target: soluble human FcγRIIa^R131-GST (human) (UniProt P12318); assay: SPR (BIAcore 3000), antibody on CM5 chip, soluble dimeric receptor-GST injected, bivalent analyte model
[3] = molecular target: soluble human FcγRIIb-GST (human) (UniProt P31994); assay: as above
soluble human FcγRIIb-GST (human), sequence (P31994 43-217): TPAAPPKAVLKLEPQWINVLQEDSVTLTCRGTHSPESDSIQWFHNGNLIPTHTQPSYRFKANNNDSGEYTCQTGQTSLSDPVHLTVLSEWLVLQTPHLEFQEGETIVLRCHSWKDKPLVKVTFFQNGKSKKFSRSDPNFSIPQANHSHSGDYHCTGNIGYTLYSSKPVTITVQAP

[4] = molecular target: soluble human FcγRIIa^R131-GST (human) (UniProt P12318); assay: flow cytometry of E. coli spheroplasts displaying the full length IgG, 20 nM FcγRIIa-GST-Alexa488 in the presence of 100 nM unlabelled FcγRIIb-GST

soluble human FcγRIIa^R131-GST (human), sequence (P12318 34-217 H167R): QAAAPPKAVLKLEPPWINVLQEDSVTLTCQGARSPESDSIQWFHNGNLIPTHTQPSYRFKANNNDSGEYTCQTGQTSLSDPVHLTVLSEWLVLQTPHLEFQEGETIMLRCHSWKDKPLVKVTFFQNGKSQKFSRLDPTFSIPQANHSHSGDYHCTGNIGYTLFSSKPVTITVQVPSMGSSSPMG

KD2b/KD2a [1]: 9.6 | Kd [2]: 102 nM | koff [2]: 0.00352 s⁻¹ | kon [2]: 34600 M⁻¹ s⁻¹ | Kd [3]: 975 nM | koff [3]: 0.0194 s⁻¹ | kon [3]: 19900 M⁻¹ s⁻¹ | FACS mean value [4]: 409 | M (mean fluorescence intensity) [4]: 413
B1: aglycosylated Fc1001 trastuzumab (antibody, part only; not given: Fab (trastuzumab), IgG1, not shown: another chain or arm of the molecule)
Fc: DKTHTCPPCPAPELLGGPSVFLFPPKPKDTLMISRTPEVTCVVVDVSPEDPEVKFNWYVDGVEVHNAKTKPREKQYNGAYRVVSVLTVLHQDWLNGKEYKCKVSNKALPAPIEKTISKAKGQPREPQVYTLPPSRDELTKSQVSLTCLVKGFYPSDIAVEWVSNGQPENNYKTTPPVLDSDGSFFLYSKLTVDKSRWQQGNVFSCSVLHEALHNHYTQKSLSLSPGK
modifications: aglycosylated (T299A)

KD2b/KD2a [1]: 3.56 | Kd [2]: 389 nM | koff [2]: 0.0079 s⁻¹ | kon [2]: 20300 M⁻¹ s⁻¹ | Kd [3]: 1380 nM | koff [3]: 0.00866 s⁻¹ | kon [3]: 6260 M⁻¹ s⁻¹ | FACS mean value [4]: 277
B2: aglycosylated Fc1003 trastuzumab (antibody, part only; not given: Fab (trastuzumab), IgG1, not shown: another chain or arm of the molecule)
Fc: B1 Fc with P48H, K74E, S141N, K172E, V177M
modifications: aglycosylated (T299A)

— patent US20120208238A1
